B1: hSIRPα Nb S44 (VHH)
VHH: QVQLQESGGGLVQPGGSLRLACAASGFTFSSYDMSWVRQAPGKGLEWVSDIKSGGGRTYYADSVKGRFTISRDNAKNTVYLQMNSLKPEDTAVYYCGSLDNSGAYTGGGQGSQVTVSS
notes: selected against domain 1 of hSIRPα; source: E. coli XL-1, purified (IMAC, SEC); not shown: His tag (from the IMAC purification)
B2: hSIRPα Nb S8 (VHH)
VHH: QVQLVESGGGLVQPGGSLRLSCADSEFRLDEYATGWFRQAPGKEREGVACISRSGSNTKYTDSVKGRFTISRDNAKKTVYLQMNSLKPEDTAVYYCAADLTSHYLSCSSYTDYNSWGQGTQVTVSS
notes: selected against the entire extracellular portion of hSIRPα; source: E. coli XL-1, purified (IMAC, SEC); not shown: His tag (from the IMAC purification)
B3: hSIRPα Nb S45 (VHH)
VHH: HVQLVESGGGLVQPGGSLRLSCAARGFSFRDSAMSWARQAPGKGLEWVGAIYSDGSTVYEKSVKGRFTISRDNAKNTMYLQMHSLKPEDSARYYCAPKGVVADEGDYSGQGTLVTVSS
notes: as for B1
B4: hSIRPα Nb S41 (VHH)
VHH: HVQLVESGGGLVQPGGSLRLSCAASGETLDYYAIGYVRQAPGKEREGVSCISSRGDNTNYADSVKGRFTISRDNANNTVYLQMNSLKPEDTAVYYCVAIKDSWQNYYCSVGWVEYDVWGQGTQVTVSS
notes: as for B1
B5: hSIRPα Nb S33 (VHH)
VHH: EVQLVESGGGLVQPGGSLRLSCTTSGFTLDYYSVGWFRQAPGKEREGVSCITASGSSTNYANSVKGRFTISRDKVKNTVYLQMSSLKPEDTAVYYCAAEPCTVVAGILQAPTSDFGSWGQGTQVTVSS
notes: as for B2
B6: hSIRPα Nb S12 (VHH)
VHH: QVQLVESGGGLVQPGGSLRLSCLVSGFSSSYYAIGWFRQAPGKEREGVSCITRSGDTTNYADSVKGRFTISRDDARNTVYLQMNSLKTEDTAVYSCALWAWAGSGRLRCTASEYGHWGQGTQVTVSS
notes: as for B2
B7: hSIRPα-S36K>R Nb (VHH)
VHH: EVQLVESGGGLVQPGGSLRLSCAASGFTLDYYAIGWFRQVPGREREGVSCISSDGGGNTYYADSVRGRFTISRDNARNTVYLQMNSLRPEDSAVYSCAAGPTYYSGSYCRDPHSDYDYWGQGTQVTVSS
notes: as the VHH of m9 (S36); source: E. coli, purified
B8: hSIRPα Nb S7 (VHH)
VHH: HVQLVESGGGLVQVGDSLRLSCAPSGRTFRAYAMAWFRQAPGKEREFVAAIRWIGGTPSYKDSVKGRFTISRDNARNTFYLQMNSLEPQDTGVYYCAAEETQKGSGLGHDGRHYDYWGQGTPVTVSS
notes: as for B2
B9: hSIRPα Nb S17 (VHH)
VHH: QVQLVESGGGLVQPGGSLRLSCAASGFTLDSYVIGWFRQAPGKEREGVSCISQRIGSTDYADSVKGRFTISKDNAKNTAYLQMNALKPEDTAVYYCAAGRLYYSGTYCPQGGMSYWGKGSPVTVSS
notes: as for B2
B10: hSIRPα Nb S42 (VHH)
VHH: HVQLVESGGGLVQPGGSLRLSCAASGFIFSGYAMSWVRQAPGKGLEWVSDISSDGVRLYYADSVKGRFTISRDNAKNTVYLEMTSLKPDDTALYYCATSSDPQLGLDLWGKGTPVTVSS
notes: as for B1
B11: hSIRPα Nb S29 (VHH)
VHH: EVQLVESGGGLVQPGGSLRLSCAASGFTSETYAIGWFRQAPGKEREGVSCISNDGGSRNYADSVKGRFTISRDNAKNTSYLQMNSLKPEDTAVYYCAAGKYYYCLGYVSDGMDYWGKGTPVTVSS
notes: as for B2
B12: hSIRPα Nb S14 (VHH)
VHH: EVQLVESGGGLVQPGGSLRLSCAASGFTANSYRMTWVRQAPGKGLEWVADIGTGNEWKYYPDSVKGRFTISRDAAKNTVYLQMNSLKPEDTAVYYCAKNGAVWYGEDGLDYWGKGTLVTVSS
notes: as for B2
B13: hSIRPα Nb S43 (VHH)
VHH: HVQLVESGGGLVQPGGSARLSCAASGFDLDYFAIGWFRQAPGKEREGVSCISTRSETTNYVDSVKGRFTISRDNAISTVYLQMNNLKPEDTAVYYCAADWADWTMTGCQMTWDDYNYWGQGAQVTVSS
notes: as for B1
B14: hSIRPα Nb S21 (VHH)
VHH: DVQLVESGGGLVQPGGSLTLSCAASGFTSGTYALAYFRQAPGKEREGVSCISNDGGSRNYADSVKGRFTISRDNAKNTMYLQMNSLKPEDTAVYYCAAGPWYYCSDFARRPDGMDYWGKGTPVTVSS
notes: as for B2

Target: T1, biotinylated recombinant hSIRPα (extracellular portion) (Homo sapiens, UniProt P78324, biotin (Sulfo-NHS-LC-LC-Biotin))
T1 construct: signal-regulatory protein α (SIRPα), human, recombinant extracellular portion; also called biotinylated hSIRPα; signal-regulatory protein α; source: bought: Acrobiosystems
T1 sequence (P78324 31-373): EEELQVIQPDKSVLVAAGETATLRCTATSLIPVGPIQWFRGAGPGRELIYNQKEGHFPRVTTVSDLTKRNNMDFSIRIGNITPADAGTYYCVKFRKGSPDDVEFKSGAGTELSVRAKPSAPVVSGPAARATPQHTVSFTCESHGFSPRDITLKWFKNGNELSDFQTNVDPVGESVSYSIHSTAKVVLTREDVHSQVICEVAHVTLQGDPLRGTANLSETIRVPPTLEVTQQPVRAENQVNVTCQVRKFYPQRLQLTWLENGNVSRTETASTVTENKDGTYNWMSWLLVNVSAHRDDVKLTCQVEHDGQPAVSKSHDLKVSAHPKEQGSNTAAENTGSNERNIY
Test: BLI; epitope binning: two consecutive association steps with different Nbs on recombinant hSIRPα
Conditions: both partners purified

Row | Binder | binding result
1 | B1 | binds
2 | B2 | binds
3 | B3 | binds
4 | B4 | binds
5 | B5 | binds
6 | B6 | binds

Target: T1, biotinylated recombinant hSIRPα …
Test: BLI; Octet RED96e; biotinylated hSIRPα (5 µg/mL) immobilised on streptavidin biosensors; Nbs 0.625 nM to 320 nM in Octet buffer (PBS, 0.1% BSA, 0.02% Tween-20); association 240 s, dissociation 720 s; 1:1 model, global fit
Conditions: both partners purified

Row | Binder | binding result
7 | B7 | binds

Target: T2, recombinant hSIRPα (human, UniProt P78324)
T2 construct: signal-regulatory protein α (SIRPα), human, recombinant extracellular portion; source: bought: Acrobiosystems
T2 sequence (P78324 31-373): as above
Test: HDX-MS; hSIRPα with Nb S8, S33 or S36; methods not in the text shown
Conditions: both partners purified

Row | Binder | binding result
8 | B2 | binds
9 | B5 | binds

Target: T3, hSIRPα-V1 displayed on U2OS cells (Homo sapiens, allele V1, UniProt P78324)
T3 construct: signal-regulatory protein α (SIRPα), human, allelic variant V1; also called hSIRPα variant V1; source: U2OS, transiently expressing, on live cells
T3 sequence (P78324 31-504): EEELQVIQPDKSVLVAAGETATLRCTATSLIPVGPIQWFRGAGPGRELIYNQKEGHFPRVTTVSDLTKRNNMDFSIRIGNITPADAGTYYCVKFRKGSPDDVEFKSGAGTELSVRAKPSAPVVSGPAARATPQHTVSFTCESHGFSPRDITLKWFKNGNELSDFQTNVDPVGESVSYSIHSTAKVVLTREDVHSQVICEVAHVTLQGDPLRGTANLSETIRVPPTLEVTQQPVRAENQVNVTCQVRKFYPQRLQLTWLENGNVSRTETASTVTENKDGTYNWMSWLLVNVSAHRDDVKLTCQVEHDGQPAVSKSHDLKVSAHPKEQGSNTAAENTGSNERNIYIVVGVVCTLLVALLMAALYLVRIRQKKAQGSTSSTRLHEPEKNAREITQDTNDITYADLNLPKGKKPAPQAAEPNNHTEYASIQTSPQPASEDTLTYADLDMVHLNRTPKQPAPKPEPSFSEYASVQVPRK
Test: immunostaining of cells or tissue; live-cell immunofluorescence on U2OS cells expressing the target; unlabeled Nbs (1 nM to 100 nM) with Cy5-labeled anti-VHH, 1 h at 37°C
Conditions: one partner purified

Row | Binder | binding result
10 | B2 | binds
11 | B8 | binds
12 | B3 | binds
13 | B5 | binds

Target: T4, hSIRPα domain 3 displayed on U2OS cells (Homo sapiens, UniProt P78324)
T4 construct: signal-regulatory protein α (SIRPα), human, domain 3; also called hSIRPαD3; D3; source: U2OS, transiently expressing, on live cells
T4 sequence (P78324 whole entry, looked up, tested part not stated): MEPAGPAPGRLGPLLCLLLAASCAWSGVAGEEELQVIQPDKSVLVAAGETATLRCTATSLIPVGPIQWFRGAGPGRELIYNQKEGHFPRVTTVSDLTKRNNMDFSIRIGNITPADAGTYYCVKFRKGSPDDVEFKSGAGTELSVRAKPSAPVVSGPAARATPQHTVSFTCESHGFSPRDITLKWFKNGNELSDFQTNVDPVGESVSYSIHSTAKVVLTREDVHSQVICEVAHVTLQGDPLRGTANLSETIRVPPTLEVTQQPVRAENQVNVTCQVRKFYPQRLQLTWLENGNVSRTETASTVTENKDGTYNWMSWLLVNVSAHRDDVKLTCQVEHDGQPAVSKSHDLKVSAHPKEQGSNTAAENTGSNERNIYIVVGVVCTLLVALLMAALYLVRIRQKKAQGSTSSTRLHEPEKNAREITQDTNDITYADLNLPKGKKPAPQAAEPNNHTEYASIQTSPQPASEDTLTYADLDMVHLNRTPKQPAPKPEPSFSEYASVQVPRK
Test: as above
Conditions: one partner purified

Row | Binder | binding result
14 | B9 | no binding (tested: Nbs 1 nM to 100 nM)
15 | B1 | no binding (tested: Nbs 1 nM to 100 nM)
16 | B10 | no binding (tested: Nbs 1 nM to 100 nM)
17 | B11 | no binding (tested: Nbs 1 nM to 100 nM)
18 | B12 | no binding (tested: Nbs 1 nM to 100 nM)
19 | B2 | no binding (tested: Nbs 1 nM to 100 nM)
20 | B13 | no binding (tested: Nbs 1 nM to 100 nM)
21 | B8 | binds
22 | B14 | no binding (tested: Nbs 1 nM to 100 nM)
23 | B3 | no binding (tested: Nbs 1 nM to 100 nM)
24 | B4 | no binding (tested: Nbs 1 nM to 100 nM)
25 | B5 | no binding (tested: Nbs 1 nM to 100 nM)
26 | B6 | no binding (tested: Nbs 1 nM to 100 nM)

Target: T5, full-length hSIRPα on U2OS cells (Homo sapiens, UniProt P78324)
T5 construct: signal-regulatory protein α (SIRPα), human, full-length, co-expressed with IRES-derived GFP; also called U2OS-hSIRPα; source: U2OS, stably expressing, on live cells
T5 sequence (P78324 31-504): as the sequence (P78324 31-504) above
Test: as above
Conditions: one partner purified

Row | Binder | binding result
27 | B9 | binds
28 | B1 | binds
29 | B10 | binds
30 | B11 | binds
31 | B12 | binds
32 | B2 | binds
33 | B13 | binds
34 | B8 | binds
35 | B14 | binds
36 | B3 | binds
37 | B4 | binds
38 | B5 | binds
39 | B6 | binds

Target: T6, hSIRPβ1 displayed on U2OS cells (Homo sapiens, UniProt O00241)
T6 construct: signal-regulatory protein β1 (SIRPβ1), human; source: U2OS, transiently expressing, on live cells
T6 sequence (O00241 30-398): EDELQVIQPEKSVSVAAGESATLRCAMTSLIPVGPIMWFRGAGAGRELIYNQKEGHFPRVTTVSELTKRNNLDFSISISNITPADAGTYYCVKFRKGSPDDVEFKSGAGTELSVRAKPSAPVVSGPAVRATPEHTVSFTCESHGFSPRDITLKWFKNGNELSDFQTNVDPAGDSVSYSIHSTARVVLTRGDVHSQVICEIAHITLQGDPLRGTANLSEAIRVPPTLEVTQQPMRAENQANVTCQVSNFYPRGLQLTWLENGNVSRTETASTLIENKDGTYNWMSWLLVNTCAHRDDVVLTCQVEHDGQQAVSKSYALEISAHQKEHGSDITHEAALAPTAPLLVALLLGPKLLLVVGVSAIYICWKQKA
Test: as above
Conditions: one partner purified

Row | Binder | binding result
40 | B1 | binds
41 | B2 | binds
42 | B8 | binds
43 | B3 | binds
44 | B4 | binds
45 | B5 | binds
46 | B6 | binds

Target: T7, hSIRPα domain 2 displayed on U2OS cells (Homo sapiens, UniProt P78324)
T7 construct: signal-regulatory protein α (SIRPα), human, domain 2; also called hSIRPαD2; D2; source: U2OS, transiently expressing, on live cells
T7 sequence (P78324 whole entry, looked up, tested part not stated): as the sequence (P78324 whole entry, looked up, tested part not stated) above
Test: as above
Conditions: one partner purified

Row | Binder | binding result
47 | B9 | binds
48 | B11 | binds
49 | B12 | binds
50 | B2 | binds
51 | B14 | binds
52 | B5 | binds

Target: T8, murine SIRPα displayed on U2OS cells (Mus musculus, UniProt P97797)
T8 construct: signal-regulatory protein α (SIRPα), mouse; also called mouse SIRPα; source: U2OS, transiently expressing, on live cells
T8 sequence (P97797 32-513): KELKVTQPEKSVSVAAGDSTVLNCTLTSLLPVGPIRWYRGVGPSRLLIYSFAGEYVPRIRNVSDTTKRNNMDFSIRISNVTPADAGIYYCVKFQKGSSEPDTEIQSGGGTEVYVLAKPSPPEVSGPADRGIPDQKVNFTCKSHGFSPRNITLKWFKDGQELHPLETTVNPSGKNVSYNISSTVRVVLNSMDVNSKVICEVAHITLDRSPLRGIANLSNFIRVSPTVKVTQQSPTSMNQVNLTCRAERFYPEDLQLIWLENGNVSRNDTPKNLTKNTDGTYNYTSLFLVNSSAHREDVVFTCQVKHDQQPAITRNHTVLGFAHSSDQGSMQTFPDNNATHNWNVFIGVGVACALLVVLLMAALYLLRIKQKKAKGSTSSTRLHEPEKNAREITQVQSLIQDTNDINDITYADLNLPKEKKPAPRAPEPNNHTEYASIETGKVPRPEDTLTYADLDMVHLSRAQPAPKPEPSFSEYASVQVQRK
Test: as above
Conditions: one partner purified

Row | Binder | binding result
53 | B1 | no binding (tested: Nbs 1 nM to 100 nM)
54 | B2 | no binding (tested: Nbs 1 nM to 100 nM)
55 | B8 | no binding (tested: Nbs 1 nM to 100 nM)
56 | B3 | no binding (tested: Nbs 1 nM to 100 nM)
57 | B4 | no binding (tested: Nbs 1 nM to 100 nM)
58 | B5 | no binding (tested: Nbs 1 nM to 100 nM)
59 | B6 | no binding (tested: Nbs 1 nM to 100 nM)

Target: T9, hSIRPα domain 1 displayed on U2OS cells (Homo sapiens, UniProt P78324)
T9 construct: signal-regulatory protein α (SIRPα), human, domain 1; also called hSIRPαD1; D1; source: U2OS, transiently expressing, on live cells
T9 sequence (P78324 whole entry, looked up, tested part not stated): as the sequence (P78324 whole entry, looked up, tested part not stated) above
Test: as above
Conditions: one partner purified

Row | Binder | binding result
60 | B9 | binds
61 | B1 | binds
62 | B10 | binds
63 | B12 | binds
64 | B13 | binds
65 | B3 | binds
66 | B4 | binds
67 | B6 | binds

Target: T10, hSIRPγ displayed on U2OS cells (Homo sapiens, UniProt Q9P1W8)
T10 construct: signal-regulatory protein γ (SIRPγ), human; also called hSIRPy; source: U2OS, transiently expressing, on live cells
T10 sequence (Q9P1W8 29-387): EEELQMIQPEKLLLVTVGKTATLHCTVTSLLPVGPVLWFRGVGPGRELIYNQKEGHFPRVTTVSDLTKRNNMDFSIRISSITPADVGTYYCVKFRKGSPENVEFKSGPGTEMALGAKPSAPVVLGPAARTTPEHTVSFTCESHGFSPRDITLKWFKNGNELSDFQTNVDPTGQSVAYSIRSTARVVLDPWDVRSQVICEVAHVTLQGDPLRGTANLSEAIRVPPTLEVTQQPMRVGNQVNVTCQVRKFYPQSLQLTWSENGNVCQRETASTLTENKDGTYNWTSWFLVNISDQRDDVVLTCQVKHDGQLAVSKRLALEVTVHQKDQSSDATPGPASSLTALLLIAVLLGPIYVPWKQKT
Test: as above
Conditions: one partner purified

Row | Binder | binding result
68 | B1 | binds
69 | B2 | binds
70 | B3 | no binding (tested: Nbs 1 nM to 100 nM)
71 | B6 | binds

Source: article PMC10757926, “Two birds with one stone: human SIRPα nanobodies for functional modulation and in vivo imaging of myeloid cells” (Frontiers in Immunology, 2023)
